According to US20220380456A1 (UNITED KINGDOM RESEARCH AND INNOVATION, published 2022):

T1: His6-TEV-MSP1D1 (CA15914) (human Apo A-I derived, engineered, biotinylated with EZ-link NHS-Biotin for the BLI experiment only)
T1 construct: Membrane scaffold protein; The entry holds the 6xHis tag, the TEV cleavage site and MSP1D1; Tested in Apo-state (lipid free) and in Nanodisc-state (POPC nanodisc, two MSP1D1 per nanodisc)
T1 chain: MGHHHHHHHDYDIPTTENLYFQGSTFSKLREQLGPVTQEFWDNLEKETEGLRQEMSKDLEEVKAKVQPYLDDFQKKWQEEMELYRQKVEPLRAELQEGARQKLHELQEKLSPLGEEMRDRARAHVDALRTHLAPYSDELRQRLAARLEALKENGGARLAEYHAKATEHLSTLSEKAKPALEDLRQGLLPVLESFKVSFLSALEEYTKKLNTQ

B1: MbNbA12^c7HopQ MegaBody (CA15900) (other)
chain: QVQLVESGGGLVQTKTTTSVIDTTNDAQNLLTQAQTIVNTLKDYCPILIAKSSSSNGGTNNANTPSWQTAGGGKNSCATFGAEFSAASDMINNAQKIVQETQQLSANQPKNITQPHNLNLNSPSSLTALAQKMLKNAQSQAEILKLANQVESDFNKLSSGHLKDYIGKCDASAISSANMTMQNQKNNWGNGCAGVEETQSLLKTSAADFNNQTPQINQAQNLANTLIQELGNNTYEQLSRLLTNDNGTNSKTSAQAINQAVNNLNERAKTLAGGTTNSPAYQATLLALRSVLGLWNSMGYAVICGGYTKSPGENNQKDFHYTDENGNGTTINCGGSTNSNGTHSYNGTNTLKADKNVSLSIEQYEKIHEAYQILSKALKQAGLAPLNSKGEKLEAHVTTSKYGSLRLSCAASGRTFSSYNMAWFRQVPGKEREFVASIARTGSGTYYRDSVKGRFTISRDNAKNTVYLQMNSLKPQDTAVYYCTAGGSLATISDYWGQGTQVTVSSHHHHHHEPEA
notes: MegaBody: c7HopQ scaffold inserted in the first β-turn of Nanobody MP1522_A12; Entry includes 6xHis and EPEA tags
B2: MDNb1_B9^c7HopQ MegaBody (CA15898) (other)
chain: QVQLVESGGGLVQTKTTTSVIDTTNDAQNLLTQAQTIVNTLKDYCPILIAKSSSSNGGTNNANTPSWQTAGGGKNSCATFGAEFSAASDMINNAQKIVQETQQLSANQPKNITQPHNLNLNSPSSLTALAQKMLKNAQSQAEILKLANQVESDFNKLSSGHLKDYIGKCDASAISSANMTMQNQKNNWGNGCAGVEETQSLLKTSAADFNNQTPQINQAQNLANTLIQELGNNTYEQLSRLLTNDNGTNSKTSAQAINQAVNNLNERAKTLAGGTTNSPAYQATLLALRSVLGLWNSMGYAVICGGYTKSPGENNQKDFHYTDENGNGTTINCGGSTNSNGTHSYNGTNTLKADKNVSLSIEQYEKIHEAYQILSKALKQAGLAPLNSKGEKLEAHVTTSKYGSLRLSCAASGRTLCSIPMGWFRQAPGKEREFVAAIRWSGGSTYYADSVKGRFSISKDNAKNTVYLQMNNLKPEDTATYYCASAAPYSSWSRGLEYDYWGQGTQVTVSSHHHHHHEPEA
notes: MegaBody: c7HopQ scaffold inserted in the first β-turn of Nanobody MP1521_B9; Entry includes 6xHis and EPEA tags; The name is printed 'MDNb', probably for 'MbNb'
B3: MbNbB7^c7HopQ MegaBody (CA15901) (other)
chain: QVQLVESGGGLVQTKTTTSVIDTTNDAQNLLTQAQTIVNTLKDYCPILIAKSSSSNGGTNNANTPSWQTAGGGKNSCATFGAEFSAASDMINNAQKIVQETQQLSANQPKNITQPHNLNLNSPSSLTALAQKMLKNAQSQAEILKLANQVESDFNKLSSGHLKDYIGKCDASAISSANMTMQNQKNNWGNGCAGVEETQSLLKTSAADFNNQTPQINQAQNLANTLIQELGNNTYEQLSRLLTNDNGTNSKTSAQAINQAVNNLNERAKTLAGGTTNSPAYQATLLALRSVLGLWNSMGYAVICGGYTKSPGENNQKDFHYTDENGNGTTINCGGSTNSNGTHSYNGTNTLKADKNVSLSIEQYEKIHEAYQILSKALKQAGLAPLNSKGEKLEAHVTTSKYGSLRLSCAASGRSFSSYGMGWFRQAPGKEREFAAGITGTAGITYYTDSVKGRFTISRDNAKNTVYLQMNNLKPEDTAVYYCAAGLTSYAGRGAAGYDYWGQGTQVTVSSHHHHHHEPEA
notes: MegaBody: c7HopQ scaffold inserted in the first β-turn of Nanobody MP1522_B7; Entry includes 6xHis and EPEA tags
B4: MbNbG9^c7HopQ MegaBody (CA15899) (other)
chain: QVQLVESGGGSVQTKTTTSVIDTTNDAQNLLTQAQTIVNTLKDYCPILIAKSSSSNGGTNNANTPSWQTAGGGKNSCATFGAEFSAASDMINNAQKIVQETQQLSANQPKNITQPHNLNLNSPSSLTALAQKMLKNAQSQAEILKLANQVESDFNKLSSGHLKDYIGKCDASAISSANMTMQNQKNNWGNGCAGVEETQSLLKTSAADFNNQTPQINQAQNLANTLIQELGNNTYEQLSRLLTNDNGTNSKTSAQAINQAVNNLNERAKTLAGGTTNSPAYQATLLALRSVLGLWNSMGYAVICGGYTKSPGENNQKDFHYTDENGNGTTINCGGSTNSNGTHSYNGTNTLKADKNVSLSIEQYEKIHEAYQILSKALKQAGLAPLNSKGEKLEAHVTTSKYGSLRLSCAASGRTFSTYRMGWFRQAPGKEREFVAGWNSINIYYADSVKGRFTISGDNAKSTVYLQMNSLKPEDTAVYYCAARGLGQTEYNYWGQGTQVTVSSHHHHHHEPEA
notes: MegaBody: c7HopQ scaffold inserted in the first β-turn of Nanobody MP1521_G9; Entry includes 6xHis and EPEA tags
B5: MbNbC10^c7HopQ MegaBody (CA15905) (other)
chain: QVQLVESGGGLVQTKTTTSVIDTTNDAQNLLTQAQTIVNTLKDYCPILIAKSSSSNGGTNNANTPSWQTAGGGKNSCATFGAEFSAASDMINNAQKIVQETQQLSANQPKNITQPHNLNLNSPSSLTALAQKMLKNAQSQAEILKLANQVESDFNKLSSGHLKDYIGKCDASAISSANMTMQNQKNNWGNGCAGVEETQSLLKTSAADFNNQTPQINQAQNLANTLIQELGNNTYEQLSRLLTNDNGTNSKTSAQAINQAVNNLNERAKTLAGGTTNSPAYQATLLALRSVLGLWNSMGYAVICGGYTKSPGENNQKDFHYTDENGNGTTINCGGSTNSNGTHSYNGTNTLKADKNVSLSIEQYEKIHEAYQILSKALKQAGLAPLNSKGEKLEAHVTTSKYGSLRLSCAASGRTSGSYAIGWFRQAPGKEREFAAAISFTAGVTYYSNSVKGRFTISRDSAKNTAYLQMNTLKPEDTAVYYCATLPSLVLILTAKPNIGYWGQGTQVTVSSHHHHHHEPEA
notes: MegaBody: c7HopQ scaffold inserted in the first β-turn of Nanobody MP1522_C10; Entry includes 6xHis and EPEA tags
B6: MbNb2_B9^c7HopQ MegaBody (CA15903) (other)
chain: QVQLVESGGGLVQTKTTTSVIDTTNDAQNLLTQAQTIVNTLKDYCPILIAKSSSSNGGTNNANTPSWQTAGGGKNSCATFGAEFSAASDMINNAQKIVQETQQLSANQPKNITQPHNLNLNSPSSLTALAQKMLKNAQSQAEILKLANQVESDFNKLSSGHLKDYIGKCDASAISSANMTMQNQKNNWGNGCAGVEETQSLLKTSAADFNNQTPQINQAQNLANTLIQELGNNTYEQLSRLLTNDNGTNSKTSAQAINQAVNNLNERAKTLAGGTTNSPAYQATLLALRSVLGLWNSMGYAVICGGYTKSPGENNQKDFHYTDENGNGTTINCGGSTNSNGTHSYNGTNTLKADKNVSLSIEQYEKIHEAYQILSKALKQAGLAPLNSKGEKLEAHVTTSKYGSLRLSCVRSARTFGSVAMGWFRQAPGKEREFVTAIDWSGSNTLYADSVKGRFTISRDNAKNTVYLQMNSLKPDDTAVYYCAASRRVVVTTSDFDSWGQGTQVTVSSHHHHHHEPEA
notes: MegaBody: c7HopQ scaffold inserted in the first β-turn of Nanobody MP1522_B9; Entry includes 6xHis and EPEA tags
B7: MbNbA5^c7HopQ MegaBody (CA15906) (other)
chain: QVQLVESGGGLVQTKTTTSVIDTTNDAQNLLTQAQTIVNTLKDYCPILIAKSSSSNGGTNNANTPSWQTAGGGKNSCATFGAEFSAASDMINNAQKIVQETQQLSANQPKNITQPHNLNLNSPSSLTALAQKMLKNAQSQAEILKLANQVESDFNKLSSGHLKDYIGKCDASAISSANMTMQNQKNNWGNGCAGVEETQSLLKTSAADFNNQTPQINQAQNLANTLIQELGNNTYEQLSRLLTNDNGTNSKTSAQAINQAVNNLNERAKTLAGGTTNSPAYQATLLALRSVLGLWNSMGYAVICGGYTKSPGENNQKDFHYTDENGNGTTINCGGSTNSNGTHSYNGTNTLKADKNVSLSIEQYEKIHEAYQILSKALKQAGLAPLNSKGEKLEAHVTTSKYGSLRLSCAASGFAFSNSYMSWVRQAPGKGPEWVSSISPSAWIITHGDSVKGRFTISRDNAKNTLYLQMNHLKPEDAALYYCARRQGYDGYVPSRDYWGQGTQVTVSSHHHHHHEPEA
notes: MegaBody: c7HopQ scaffold inserted in the first β-turn of Nanobody MP1522_A5; Entry includes 6xHis and EPEA tags
B8: MbNbH5^c7HopQ MegaBody (CA15904) (other)
chain: QVQLVESGGGLVQTKTTTSVIDTTNDAQNLLTQAQTIVNTLKDYCPILIAKSSSSNGGTNNANTPSWQTAGGGKNSCATFGAEFSAASDMINNAQKIVQETQQLSANQPKNITQPHNLNLNSPSSLTALAQKMLKNAQSQAEILKLANQVESDFNKLSSGHLKDYIGKCDASAISSANMTMQNQKNNWGNGCAGVEETQSLLKTSAADFNNQTPQINQAQNLANTLIQELGNNTYEQLSRLLTNDNGTNSKTSAQAINQAVNNLNERAKTLAGGTTNSPAYQATLLALRSVLGLWNSMGYAVICGGYTKSPGENNQKDFHYTDENGNGTTINCGGSTNSNGTHSYNGTNTLKADKNVSLSIEQYEKIHEAYQILSKALKQAGLAPLNSKGEKLEAHVTTSKYGSLRLSCAASGFTFSTYSMSWVRQAPGKGLEWVSRILTDGGTTSYPDSVKGRFTISRDNAKNTLYLQMNNLKPEDTAVYYCARGWPSDGYSGGYRGQGTQVTVSSHHHHHHEPEA
notes: MegaBody: c7HopQ scaffold inserted in the first β-turn of Nanobody MP1521_H5; Entry includes 6xHis and EPEA tags
B9: MbNbE4^c7HopQ MegaBody (CA15191) (other)
chain: QVQLVESGGGLVQTKTTTSVIDTTNDAQNLLTQAQTIVNTLKDYCPILIAKSSSSNGGTNNANTPSWQTAGGGKNSCATFGAEFSAASDMINNAQKIVQETQQLSANQPKNITQPHNLNLNSPSSLTALAQKMLKNAQSQAEILKLANQVESDFNKLSSGHLKDYIGKCDASAISSANMTMQNQKNNWGNGCAGVEETQSLLKTSAADFNNQTPQINQAQNLANTLIQELGNNTYEQLSRLLTNDNGTNSKTSAQAINQAVNNLNERAKTLAGGTTNSPAYQATLLALRSVLGLWNSMGYAVICGGYTKSPGENNQKDFHYTDENGNGTTINCGGSTNSNGTHSYNGTNTLKADKNVSLSIEQYEKIHEAYQILSKALKQAGLAPLNSKGEKLEAHVTTSKYGSLRLSCAASGRTFGSTFMGWFRQAPGKERDFVASITWNRGLTTYADSVKGRFTISRDSAKNTVDLQMNNLKPEDTAVYYCVLGMGTSFASWGQGTQVTVSSHHHHHHEPEA
notes: MegaBody: c7HopQ scaffold inserted in the first β-turn of Nanobody MP1521_E4; Entry includes 6xHis and EPEA tags

Key:
[1] = target: T1, His6-TEV-MSP1D1 (CA15914); assay: ELISA, purified MegaBody on coated MSP (Apo- or Nanodisc-state) vs non-coated wells, A405
[2] = target: T2, His6-TEV-MSP2N2 (CA15915) (human Apo A-I derived, engineered, UniProt P02647 79-267, limits assumed); assay: as above
T2 construct: Membrane scaffold protein; The entry holds the 6xHis tag, the TEV cleavage site and MSP2N2; Tested in Apo-state, in Nanodisc-state, and as the belt of nanodiscs loaded with GABAAR-β3

| Binder | fold ELISA signal over no MSP [1] [fold] | fold ELISA signal over no MSP [2] [fold] |
| --- | --- | --- |
| B1 | ≥ 4 | ≥ 4 |
| B2 | ≥ 4 | ≥ 4 |
| B3 | ≥ 4 | ≥ 4 |
| B4 | ≥ 4 | ≥ 4 |
| B5 | ≥ 4 | ≥ 4 |
| B6 | ≥ 4 | ≥ 4 |
| B7 | ≥ 4 | ≥ 4 |
| B8 | ≥ 4 | ≥ 4 |
| B9 | ≥ 4 | ≥ 4 |
